This data set concerns the target GST-Dpn bHLH (UniProt Q26263 1-108). In words: EMSA.

GST-Dpn bHLH, sequence (Q26263 1-108): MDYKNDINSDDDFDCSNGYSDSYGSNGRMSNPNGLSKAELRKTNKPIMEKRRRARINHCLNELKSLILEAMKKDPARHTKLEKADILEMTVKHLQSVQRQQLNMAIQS

B1: (1+2)m (dsDNA)
DNA 1: GATCTTAGGTAGCCCCCGGGACTGGCACAGGCACCTTGATC
DNA 2: GATCAAGGTGCCTGTGCCAGTCCCGGGGGCTACCTAAGATC
B1: the binding result was “no binding”.

B2: 3Cm (dsDNA)
DNA 1: GATCCCTGGCACCCTTCCTGATC
DNA 2: GATCAGGAAGGGTGCCAGGGATC
In the case of B2, the binding result is “no binding”.

B3: 4Cm (dsDNA)
DNA 1: GATCTTGCCAAGCTCCACGATC
DNA 2: GATCGTGGAGCTTGGCAAGATC
With B3, the binding result is “no binding”.
